{"source": "patent US12351648B2", "about": "“Methods of inhibiting MASP-2 for the treatment and/or prevention of coronavirus-induced acute respiratory distress syndrome” (priority 2020, dated 2025)", "biological_target": "human MASP-2 (Homo sapiens (Human), UniProt O00187)", "sequence (O00187 whole entry, looked up)": "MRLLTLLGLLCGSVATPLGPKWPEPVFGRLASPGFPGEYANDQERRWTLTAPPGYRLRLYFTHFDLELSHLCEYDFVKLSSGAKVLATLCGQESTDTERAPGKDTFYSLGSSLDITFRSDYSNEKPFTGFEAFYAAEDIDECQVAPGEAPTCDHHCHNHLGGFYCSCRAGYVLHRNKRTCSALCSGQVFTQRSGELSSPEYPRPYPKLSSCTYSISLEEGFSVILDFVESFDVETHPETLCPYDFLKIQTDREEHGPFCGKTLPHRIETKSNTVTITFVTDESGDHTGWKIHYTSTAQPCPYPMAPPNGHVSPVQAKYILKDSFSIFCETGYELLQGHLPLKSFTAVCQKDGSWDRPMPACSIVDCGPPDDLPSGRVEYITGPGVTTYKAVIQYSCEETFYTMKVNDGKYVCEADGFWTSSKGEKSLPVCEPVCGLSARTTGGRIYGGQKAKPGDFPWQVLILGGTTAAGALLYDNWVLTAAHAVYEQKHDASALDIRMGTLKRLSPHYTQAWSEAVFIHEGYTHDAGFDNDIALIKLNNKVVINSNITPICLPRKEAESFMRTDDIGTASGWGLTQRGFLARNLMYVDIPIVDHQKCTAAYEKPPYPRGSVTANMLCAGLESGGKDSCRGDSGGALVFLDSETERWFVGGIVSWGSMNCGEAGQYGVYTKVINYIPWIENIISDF", "experiment": "C3 assay: inhibition of lectin pathway C3 convertase formation in human serum (scFv clones)", "type": "biochemical", "conditions": "read-out: 1% human serum C3 assay (IC50 nM), scFv format", "source_text": "A functional assay that measures inhibition of lectin pathway C3 convertase formation was used to evaluate the “blocking activity” of the MASP-2 scFv candidate clones. MASP-2 serine protease activity is required in order to generate the two protein components (C4b, C2a) that comprise the lectin pathway C3 convertase. Therefore, a MASP-2 scFv that inhibits MASP-2 functional activity (i.e., a blocking MASP-2 scFv), will inhibit de novo formation of lectin pathway C3 convertase. […]\nThe scFv clones were each tested in triplicate at the concentration of 2 μg/mL. […] C3c formation was monitored in the presence and absence of the scFv/IgG clones. […]\nNormal human serum was diluted to 0.5% in CaMgGVB buffer, and scFv clones or the OMS100 Fab2 positive control were added in triplicates at 0.01 μg/mL; 1 μg/mL (only OMS100 control) and 10 μg/mL to this buffer and preincubated 45 minutes on ice before addition to the blocked ELISA plate. […] C3b deposition was detected with a Rabbit α-Mouse C3c antibody followed by Goat α-Rabbit H1RP. […] The background was determined by carrying out the same assay except that the wells were mannan-free. […]", "data": [{"molecule": "17D20mc: mother scFv clone, fully human MASP-2 antibody from phage display (TABLE 8, \"all in scFv format\") (protein) scFv: QVTLKESGPVLVKPTETLTLTCTVSGFSLSRGKMGVSWIRQPPGKALEWLAHIFSSDEKSYRTSLKSRLTISKDTSKNQVVLTMTNMDPVDTATYYCARIRAGGIDYWGQGTLVTVSSKLSGSASAPKLEEGEFSEARVQPVLTQPPSVSVSPGQTASITCSGDKLGDKFAYWYQQKPGHSPVLVIYQDNKRPSGIPGRFSGSNSGNTATLTISGTQAMDEADYYCQAWDSSTAVFGTGTKVTVLAAAGSEQKLISEEDLNSHHHHHH", "values": [{"measurement": "IC50", "value": 38, "unit": "nM"}]}, {"molecule": "17N16mc: mother scFv clone, fully human MASP-2 antibody from phage display (TABLE 8, \"all in scFv format\") (protein) scFv: QVQLQQSGPGLVKPSQTLSLTCAISGDSVSSTSAAWNWIRQSPSRGLEWLGRTYYRSKWYNDYAVSVKSRITINPDTSKNQFSLQLNSVTPEDTAVYYCARDPFGVPFDIWGQGTMVTVSSKLSGSASAPKLEEGEFSEARVSYVLTQPPSVSVAPGQTARITCGGNNIGSKNVHWYQQKPGQAPVLVVYDDSDRPSGIPERFSGSNSGNTATLTVSRVEAGDEADYYCQVWDTTTDHVVFGGGTKLTVLAAAGSEQKLISEEDLNSHHHHHH", "values": [{"measurement": "IC50", "value": 68, "unit": "nM"}]}]}
